In the supplement of paper PMC10065799, “High-throughput profiling of sequence recognition by tyrosine kinases and SH2 domains using bacterial peptide display” (eLife, 2023):

Tests used:
SHP2-C SH2 = experiment: SH2 binding enrichment of the phosphorylated peptide, bacterial display (enrichment ratio); higher = better substrate or ligand; peptides without Tyr show the background
Grb2 SH2 = Grb2 SH2 (UniProt P62993); experiment: as above
c-Src SH2 = experiment: as above
AncSZ = experiment: phosphorylation enrichment, bacterial display (enrichment ratio); higher = better substrate or ligand; peptides without Tyr show the background
c-Src = experiment: as above
FGFR3 = FGFR3 (UniProt P22607); experiment: as above
EPHB1 = EPHB1 (UniProt P54762); experiment: as above
Sequence of EPHB1 (P54762 whole entry, looked up): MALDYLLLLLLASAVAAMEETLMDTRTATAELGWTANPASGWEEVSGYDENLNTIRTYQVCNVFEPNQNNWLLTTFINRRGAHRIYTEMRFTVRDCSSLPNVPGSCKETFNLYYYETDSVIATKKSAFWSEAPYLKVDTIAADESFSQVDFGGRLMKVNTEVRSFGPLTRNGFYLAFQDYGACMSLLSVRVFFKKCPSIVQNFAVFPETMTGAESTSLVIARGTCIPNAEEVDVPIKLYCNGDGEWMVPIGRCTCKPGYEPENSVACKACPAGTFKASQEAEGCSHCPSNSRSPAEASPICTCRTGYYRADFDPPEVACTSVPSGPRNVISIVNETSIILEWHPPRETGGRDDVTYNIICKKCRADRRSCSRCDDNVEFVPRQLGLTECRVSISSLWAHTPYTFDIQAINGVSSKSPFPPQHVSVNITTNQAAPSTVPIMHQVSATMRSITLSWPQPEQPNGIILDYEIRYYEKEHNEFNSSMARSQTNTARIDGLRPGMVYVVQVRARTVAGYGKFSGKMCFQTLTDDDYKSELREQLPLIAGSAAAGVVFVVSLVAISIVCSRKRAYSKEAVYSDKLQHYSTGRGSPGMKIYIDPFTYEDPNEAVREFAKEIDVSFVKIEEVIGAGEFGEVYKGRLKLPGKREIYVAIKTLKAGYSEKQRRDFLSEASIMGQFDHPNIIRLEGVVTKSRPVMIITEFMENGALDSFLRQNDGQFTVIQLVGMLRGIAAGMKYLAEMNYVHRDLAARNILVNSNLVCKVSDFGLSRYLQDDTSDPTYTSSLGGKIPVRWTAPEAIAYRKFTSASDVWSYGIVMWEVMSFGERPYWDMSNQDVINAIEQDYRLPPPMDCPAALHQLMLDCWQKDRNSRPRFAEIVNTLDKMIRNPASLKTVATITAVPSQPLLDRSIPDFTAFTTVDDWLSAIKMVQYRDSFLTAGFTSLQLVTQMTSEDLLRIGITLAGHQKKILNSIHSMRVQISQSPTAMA

EPHB2 = EPHB2 (UniProt P29323); experiment: as above
Sequence of EPHB2 (P29323 whole entry, looked up): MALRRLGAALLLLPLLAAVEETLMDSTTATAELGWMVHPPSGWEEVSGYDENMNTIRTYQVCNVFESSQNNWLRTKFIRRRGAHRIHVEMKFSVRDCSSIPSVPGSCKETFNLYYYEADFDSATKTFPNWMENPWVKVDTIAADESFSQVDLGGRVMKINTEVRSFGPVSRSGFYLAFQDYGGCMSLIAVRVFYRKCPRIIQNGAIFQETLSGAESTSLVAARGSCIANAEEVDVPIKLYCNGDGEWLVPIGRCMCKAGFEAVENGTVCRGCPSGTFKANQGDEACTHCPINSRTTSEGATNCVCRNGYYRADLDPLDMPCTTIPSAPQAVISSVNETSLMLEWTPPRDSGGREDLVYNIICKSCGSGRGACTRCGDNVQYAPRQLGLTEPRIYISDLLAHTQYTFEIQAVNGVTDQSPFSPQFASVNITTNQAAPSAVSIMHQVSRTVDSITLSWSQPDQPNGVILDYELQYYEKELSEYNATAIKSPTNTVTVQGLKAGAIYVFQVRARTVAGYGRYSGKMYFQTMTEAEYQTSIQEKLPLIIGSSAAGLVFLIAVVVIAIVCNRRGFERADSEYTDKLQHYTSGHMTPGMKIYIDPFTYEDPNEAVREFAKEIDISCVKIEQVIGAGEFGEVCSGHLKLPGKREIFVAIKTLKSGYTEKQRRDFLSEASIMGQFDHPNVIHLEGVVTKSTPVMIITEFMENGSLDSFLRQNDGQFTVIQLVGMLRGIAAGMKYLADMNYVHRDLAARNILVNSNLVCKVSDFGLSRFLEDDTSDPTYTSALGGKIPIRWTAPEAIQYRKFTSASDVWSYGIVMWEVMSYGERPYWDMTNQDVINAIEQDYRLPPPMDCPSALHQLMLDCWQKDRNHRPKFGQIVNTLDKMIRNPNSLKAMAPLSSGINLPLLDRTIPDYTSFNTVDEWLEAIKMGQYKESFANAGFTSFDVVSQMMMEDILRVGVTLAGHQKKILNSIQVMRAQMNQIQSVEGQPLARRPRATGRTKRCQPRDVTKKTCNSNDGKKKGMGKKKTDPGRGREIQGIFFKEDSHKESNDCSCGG

Hck = Hck (UniProt P08631); experiment: as above
Sequence of Hck (P08631 whole entry, looked up): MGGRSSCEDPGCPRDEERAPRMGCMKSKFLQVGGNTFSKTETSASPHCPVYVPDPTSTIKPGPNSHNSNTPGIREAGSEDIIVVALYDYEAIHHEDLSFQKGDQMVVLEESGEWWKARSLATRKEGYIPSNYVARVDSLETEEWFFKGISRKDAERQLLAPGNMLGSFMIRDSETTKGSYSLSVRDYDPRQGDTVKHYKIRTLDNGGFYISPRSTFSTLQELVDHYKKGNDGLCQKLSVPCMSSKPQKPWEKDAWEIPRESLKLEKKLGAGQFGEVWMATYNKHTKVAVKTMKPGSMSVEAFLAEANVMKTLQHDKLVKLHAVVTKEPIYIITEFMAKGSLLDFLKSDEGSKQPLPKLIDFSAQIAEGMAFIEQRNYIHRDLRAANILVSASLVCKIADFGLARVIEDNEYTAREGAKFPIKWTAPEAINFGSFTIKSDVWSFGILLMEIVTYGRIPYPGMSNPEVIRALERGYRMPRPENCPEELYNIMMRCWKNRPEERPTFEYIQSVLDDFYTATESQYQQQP

MERTK = MERTK (UniProt Q12866); experiment: as above
Fyn = Fyn (UniProt P06241); experiment: as above
Sequence of Fyn (P06241 whole entry, looked up): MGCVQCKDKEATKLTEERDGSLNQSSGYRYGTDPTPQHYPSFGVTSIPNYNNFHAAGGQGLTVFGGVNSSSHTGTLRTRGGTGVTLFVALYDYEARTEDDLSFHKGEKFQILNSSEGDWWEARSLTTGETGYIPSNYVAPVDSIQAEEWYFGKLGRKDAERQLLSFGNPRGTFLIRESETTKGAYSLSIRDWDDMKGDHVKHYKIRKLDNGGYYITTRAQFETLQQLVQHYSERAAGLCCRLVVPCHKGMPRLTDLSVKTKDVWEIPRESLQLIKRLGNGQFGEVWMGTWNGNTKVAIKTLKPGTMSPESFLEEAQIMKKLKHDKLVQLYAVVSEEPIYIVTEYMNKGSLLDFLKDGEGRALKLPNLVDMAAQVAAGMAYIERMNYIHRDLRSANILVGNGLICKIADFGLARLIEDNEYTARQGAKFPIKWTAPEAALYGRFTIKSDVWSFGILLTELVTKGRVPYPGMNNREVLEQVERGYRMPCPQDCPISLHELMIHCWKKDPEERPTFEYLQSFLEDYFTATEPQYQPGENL

Jak2 = Jak2 (UniProt O60674); experiment: as above
Sequence of Jak2 (O60674 whole entry, looked up): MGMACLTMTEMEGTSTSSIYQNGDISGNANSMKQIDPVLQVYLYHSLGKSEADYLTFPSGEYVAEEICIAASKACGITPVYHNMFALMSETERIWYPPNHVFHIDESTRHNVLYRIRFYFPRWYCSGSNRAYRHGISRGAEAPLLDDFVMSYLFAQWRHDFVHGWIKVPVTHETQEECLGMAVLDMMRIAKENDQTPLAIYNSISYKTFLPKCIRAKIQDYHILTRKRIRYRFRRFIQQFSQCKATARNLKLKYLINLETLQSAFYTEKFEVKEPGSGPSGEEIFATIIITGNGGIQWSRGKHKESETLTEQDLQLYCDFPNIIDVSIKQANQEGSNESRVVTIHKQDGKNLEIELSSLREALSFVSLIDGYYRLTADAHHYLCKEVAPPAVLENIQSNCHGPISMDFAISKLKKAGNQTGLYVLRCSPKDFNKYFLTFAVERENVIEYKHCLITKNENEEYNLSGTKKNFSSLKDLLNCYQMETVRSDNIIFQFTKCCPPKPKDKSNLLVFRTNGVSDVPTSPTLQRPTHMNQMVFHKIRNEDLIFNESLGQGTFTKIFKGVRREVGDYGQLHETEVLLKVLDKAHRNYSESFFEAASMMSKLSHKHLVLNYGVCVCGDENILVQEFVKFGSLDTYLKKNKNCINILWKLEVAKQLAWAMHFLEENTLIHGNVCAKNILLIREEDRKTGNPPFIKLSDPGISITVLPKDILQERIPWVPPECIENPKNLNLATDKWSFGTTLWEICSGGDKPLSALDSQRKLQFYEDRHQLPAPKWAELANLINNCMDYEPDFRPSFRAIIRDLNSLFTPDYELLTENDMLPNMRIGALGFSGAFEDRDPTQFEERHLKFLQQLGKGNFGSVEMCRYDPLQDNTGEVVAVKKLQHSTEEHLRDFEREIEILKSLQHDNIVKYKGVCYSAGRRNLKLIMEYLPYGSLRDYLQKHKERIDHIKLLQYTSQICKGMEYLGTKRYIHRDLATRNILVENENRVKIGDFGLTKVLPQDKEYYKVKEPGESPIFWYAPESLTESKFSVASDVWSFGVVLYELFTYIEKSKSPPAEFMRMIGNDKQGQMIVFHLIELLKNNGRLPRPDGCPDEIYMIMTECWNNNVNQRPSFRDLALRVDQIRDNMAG

Fes = Fes (UniProt P07332); experiment: as above
FGFR1 = FGFR1 (UniProt P11362); experiment: as above
Sequence of FGFR1 (P11362 whole entry, looked up): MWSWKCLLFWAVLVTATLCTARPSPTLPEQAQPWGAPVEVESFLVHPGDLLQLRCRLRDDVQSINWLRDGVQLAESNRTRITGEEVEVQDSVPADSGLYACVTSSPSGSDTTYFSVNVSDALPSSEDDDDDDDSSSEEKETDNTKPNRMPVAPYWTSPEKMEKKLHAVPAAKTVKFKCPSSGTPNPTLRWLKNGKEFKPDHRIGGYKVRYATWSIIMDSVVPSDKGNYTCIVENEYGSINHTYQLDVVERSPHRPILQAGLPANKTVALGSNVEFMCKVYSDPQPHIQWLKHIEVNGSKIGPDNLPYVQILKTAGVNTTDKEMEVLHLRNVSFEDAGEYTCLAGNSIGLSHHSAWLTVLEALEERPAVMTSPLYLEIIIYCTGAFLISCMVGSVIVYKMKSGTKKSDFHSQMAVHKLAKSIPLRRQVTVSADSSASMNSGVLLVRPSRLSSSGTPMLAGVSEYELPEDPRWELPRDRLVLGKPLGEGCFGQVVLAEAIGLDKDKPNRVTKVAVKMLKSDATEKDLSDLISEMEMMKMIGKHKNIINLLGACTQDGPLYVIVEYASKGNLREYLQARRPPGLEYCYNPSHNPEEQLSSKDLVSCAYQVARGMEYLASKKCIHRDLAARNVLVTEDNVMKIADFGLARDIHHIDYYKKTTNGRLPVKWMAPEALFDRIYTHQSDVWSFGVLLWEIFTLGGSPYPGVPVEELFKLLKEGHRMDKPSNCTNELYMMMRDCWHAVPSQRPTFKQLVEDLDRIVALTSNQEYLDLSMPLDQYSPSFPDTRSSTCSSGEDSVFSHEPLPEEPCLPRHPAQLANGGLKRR

Fer (mouse) = experiment: as above
c-Abl (mouse) = experiment: as above
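Throughout, for SH2 binding enrichment of the phosphorylated peptide, bacterial display: peptide library displayed on the E. coli surface as eCPX fusions, selected cells deep-sequenced, score is each peptide's frequency after selection divided by its frequency in the input.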
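Throughout, for phosphorylation enrichment, bacterial display: 11-residue human phosphosite peptides and single-mutation variants displayed on the E. coli surface, counted by deep sequencing, each peptide's frequency after selection divided by its frequency in the unselected input library; frequency after pTyr selection over input frequency; kinase dosed for 20-30% of maximal phosphorylation in three min.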

Row | SH2 binding enrichment (SHP2-C SH2) | SH2 binding enrichment (Grb2 SH2) | SH2 binding enrichment (c-Src SH2) | Sequence | phosphorylation enrichment (AncSZ) | phosphorylation enrichment (c-Src) | phosphorylation enrichment (FGFR3) | phosphorylation enrichment (EPHB1) | phosphorylation enrichment (EPHB2) | phosphorylation enrichment (Hck) | phosphorylation enrichment (MERTK) | phosphorylation enrichment (Fyn) | phosphorylation enrichment (Jak2) | phosphorylation enrichment (Fes) | phosphorylation enrichment (FGFR1) | phosphorylation enrichment (Fer (mouse)) | phosphorylation enrichment (c-Abl (mouse))
1 | 0.611 | 0.741 | 0.494 | FFRDGHMPRQF [GSS_Y270_Y270H_YF] | 0.472 | 0.365 | 0.487 | 0.367 | 0.363 | 0.357 | 0.324 | 0.374 | 0.491 | 0.612 | 0.392 | 0.355 | 0.505
2 | 0.721 | 0.979 | 0.667 | FFRKVYHLASV [RBL1_Y796_YF] | 0.697 | 0.503 | 0.545 | 0.439 | 0.415 | 0.337 | 0.36 | 0.491 | 0.713 | 0.781 | 0.46 | 0.374 | 0.581
3 | 1.14 | 1.03 | 0.818 | FGAHNHHPLPV [OAT_Y55_Y55H_YF] | 0.58 | 0.477 | 0.694 | 0.393 | 0.54 | 0.457 | 0.496 | 0.369 | 0.583 | 0.636 | 0.386 | 0.505 | 0.579
4 | 0.762 | 0.903 | 0.601 | FGGLRYGFGGL [KRTAP20-2_Y13_V17G_YF] | 0.739 | 0.379 | 0.536 | 0.445 | 0.448 | 0.465 | 0.37 | 0.389 | 0.664 | 1.08 | 0.672 | 0.431 | 0.553
5 | 0.745 | 0.802 | 0.563 | FGMSTYITRED [FNDC3B_Y180_YF] | 0.961 | 0.692 | 0.676 | 0.776 | 0.45 | 0.743 | 0.437 | 0.676 | 0.95 | 1.11 | 0.581 | 0.533 | 0.693
6 | 0.583 | 0.877 | 0.568 | FGSRLYKFAFK [FANCD2_Y458_L456R_YF] | 0.571 | 0.515 | 0.484 | 0.354 | 0.557 | 0.439 | 0.406 | 0.433 | 0.582 | 0.651 | 0.399 | 0.311 | 0.456
7 | 0.935 | 0.706 | 0.49 | FHLGKYLQEVL [KLB_Y910_Y906H_YF] | 1.58 | 0.491 | 0.788 | 0.415 | 0.514 | 0.591 | 0.428 | 0.346 | 1.36 | 1.52 | 0.415 | 0.48 | 1.01
8 | 1.62 | 1.66 | 1.55 | FHLLPYTIRAM [PARS2_Y93_V95I_YF] | 0.825 | 1.02 | 0.533 | 0.504 | 0.588 | 0.541 | 0.373 | 0.5 | 0.708 | 0.972 | 0.547 | 0.454 | 0.621
9 | 0.631 | 0.696 | 0.423 | FKDFFYCWNTF [AICDA_Y146_YF] | 1.87 | 1.25 | 1.09 | 0.862 | 0.804 | 0.624 | 2.55 | 0.618 | 1.73 | 1.93 | 0.749 | 1.41 | 1.19
10 | 0.77 | 0.94 | 0.742 | FKEQGYHRLPP [RIN1_Y681_YF] | 0.441 | 0.37 | 0.528 | 0.561 | 0.298 | 0.456 | 0.377 | 0.457 | 0.877 | 0.679 | 0.58 | 0.363 | 0.345
11 | 0.994 | 0.774 | 0.918 | FKEVVYQAMEE [TACC3_Y684_E680K] | 1.55 | 2.88 | 0.884 | 1.06 | 0.814 | 1.66 | 1.62 | 2.37 | 1.04 | 1.05 | 0.771 | 0.829 | 1.11
12 | 1.69 | 25 | 4.35 | FLNSSYINIST [IL23R_Y178_T175N_YF] | 0.652 | 0.317 | 0.676 | 0.338 | 0.368 | 0.471 | 0.415 | 0.438 | 0.663 | 0.746 | 0.464 | 0.367 | 0.383
13 | 0.844 | 0.783 | 0.653 | FLTLHYDAKPQ [ANG_Y38_Q36L] | 0.912 | 0.312 | 0.575 | 0.505 | 0.426 | 0.462 | 0.301 | 0.449 | 0.669 | 0.983 | 0.532 | 0.328 | 0.501
14 | 0.511 | 0.733 | 0.439 | FMCKVYSDPQP [FGFR1_Y280] | 1.41 | 0.664 | 0.863 | 0.752 | 0.701 | 0.578 | 0.425 | 0.516 | 1.3 | 1.64 | 0.543 | 0.591 | 0.99
15 | 0.687 | 0.964 | 0.57 | FMKEPYIQSRF [HIPK4_Y175_V171M_YF] | 0.54 | 0.474 | 0.449 | 0.257 | 0.412 | 0.393 | 0.452 | 0.332 | 0.807 | 0.643 | 0.372 | 0.275 | 0.548
16 | 0.854 | 0.8 | 0.768 | FMYKVYSDPQP [FGFR1_Y280_C277Y] | 1.03 | 0.495 | 0.642 | 0.778 | 0.799 | 0.569 | 0.5 | 0.526 | 0.819 | 1.16 | 0.461 | 0.532 | 0.521
17 | 0.871 | 1.12 | 0.843 | FNSLPYQVPTS [CALCOCO2_Y358] | 0.942 | 0.561 | 0.578 | 0.464 | 0.504 | 0.56 | 1.34 | 0.467 | 0.611 | 0.63 | 0.431 | 1.36 | 2.56

Row | SH2 binding enrichment (SHP2-C SH2) | SH2 binding enrichment (Grb2 SH2) | SH2 binding enrichment (c-Src SH2) | Sequence | phosphorylation enrichment (AncSZ) | phosphorylation enrichment (c-Src) | phosphorylation enrichment (FGFR3) | phosphorylation enrichment (EPHB1) | phosphorylation enrichment (EPHB2) | phosphorylation enrichment (Hck) | phosphorylation enrichment (MERTK) | phosphorylation enrichment (Fyn) | phosphorylation enrichment (Jak2) | phosphorylation enrichment (Fes) | phosphorylation enrichment (FGFR1) | phosphorylation enrichment (Fer (mouse)) | phosphorylation enrichment (c-Abl (mouse))
18 | 0.706 | 0.985 | 0.617 | FPPDGYSRHCE [CTNND1_Y213_Y217C_YF] | 0.784 | 0.376 | 0.661 | 0.565 | 0.542 | 0.473 | 0.383 | 0.431 | 0.741 | 0.904 | 0.477 | 0.485 | 0.584
19 | 0.738 | 0.818 | 0.424 | FPPDGYSRHFE [CTNND1_Y213_YF] | 0.606 | 0.472 | 0.603 | 0.363 | 0.373 | 0.408 | 0.372 | 0.435 | 0.62 | 0.676 | 0.398 | 0.349 | 0.493
20 | 0.771 | 0.668 | 0.491 | FPPISYLNAIS [MVD_Y276] | 0.813 | 0.466 | 0.522 | 0.383 | 0.472 | 0.465 | 0.49 | 0.488 | 0.51 | 0.675 | 0.473 | 0.408 | 0.664
21 | 0.981 | 1 | 0.67 | FQEKGYNKEPR [CHRND_Y38_L42P] | 0.895 | 0.57 | 0.569 | 0.738 | 0.627 | 0.655 | 0.644 | 0.649 | 0.691 | 0.868 | 0.587 | 0.571 | 0.912
22 | 0.687 | 0.926 | 0.571 | FQGRRYDCDCD [CRYGS_Y21] | 0.875 | 0.471 | 0.497 | 0.373 | 0.383 | 0.5 | 0.529 | 0.428 | 0.751 | 0.936 | 0.478 | 0.368 | 0.647
23 | 1.17 | 1.2 | 0.628 | FQNSLYAPDYS [FAM92A_Y226_R222Q] | 1.1 | 1.42 | 0.926 | 2.48 | 2.45 | 1.46 | 5.57 | 1.07 | 0.945 | 1.07 | 0.781 | 1.6 | 0.618
24 | 1.02 | 1.02 | 1.04 | FRDALYKFIVD [PHEX_Y250_M253I_YF] | 1.02 | 0.546 | 0.748 | 0.644 | 0.489 | 0.56 | 0.902 | 0.508 | 0.919 | 1.32 | 0.44 | 0.479 | 0.809
25 | 0.956 | 0.897 | 0.77 | FRDALYKFMVD [PHEX_Y250_YF] | 1.15 | 0.582 | 0.962 | 0.768 | 0.602 | 0.559 | 0.763 | 0.525 | 1.23 | 1.37 | 0.626 | 0.676 | 0.834
26 | 0.754 | 0.79 | 0.568 | FRNSLYAPDYS [FAM92A_Y226] | 0.723 | 0.779 | 0.619 | 1.23 | 0.775 | 0.88 | 4.83 | 0.734 | 0.58 | 0.725 | 0.66 | 0.555 | 0.493
27 | 1.99 | 0.821 | 0.363 | FRRITYFNWRH [PDE6B_Y556_H557Y_YF] | 0.817 | 0.673 | 0.476 | 0.626 | 0.625 | 0.832 | 0.615 | 0.607 | 0.852 | 0.8 | 0.553 | 0.423 | 0.573
28 | 0.901 | 1.35 | 0.607 | FRTPGYREVVI [TNS2_Y673_A670T_YF] | 0.703 | 0.504 | 0.6 | 0.418 | 0.446 | 0.43 | 0.546 | 0.411 | 0.615 | 0.814 | 0.45 | 0.473 | 0.597
29 | 19 | 1.45 | 5.22 | FSLIHYAGIVD [MYH7_Y582] | 0.997 | 0.343 | 0.714 | 0.503 | 0.648 | 0.458 | 0.339 | 0.408 | 0.765 | 0.963 | 0.405 | 0.387 | 0.609
30 | 37.2 | 1.08 | 7.83 | FSLIHYASIVD [MYH7_Y582_G584S] | 1.07 | 0.442 | 1.01 | 0.83 | 0.692 | 0.575 | 0.475 | 0.488 | 1.13 | 1.29 | 0.479 | 0.714 | 0.847
31 | 0.843 | 0.883 | 0.837 | FSPCDYQPCLA [TNS1_Y798_Y796C_YF] | 1.84 | 1.42 | 1.58 | 11.6 | 6.05 | 0.659 | 0.49 | 0.581 | 1.05 | 1.11 | 2.38 | 0.539 | 0.996
32 | 0.657 | 0.756 | 0.496 | FSPFDYQPCLA [TNS1_Y798_YF] | 1.39 | 0.57 | 0.978 | 0.775 | 0.715 | 0.66 | 0.538 | 0.589 | 1.21 | 1.44 | 1.01 | 0.643 | 1.04
33 | 0.628 | 0.841 | 0.654 | FSQETYYRVSN [ABCD1_Y180_Q178E] | 1.26 | 4.41 | 3.85 | 4.43 | 2.73 | 4.2 | 3.78 | 1.77 | 6.03 | 0.812 | 4.96 | 0.492 | 1.03
